Test results taken from patent US20230227537A1.
Where “and” joins values, the source holds several entries; their conditions need not be identical. Identical values can stand only once.

Target: Mouse IgG1 Fc fused SARS-CoV-2 RBD (Sino Biological) (SARS-CoV-2; mouse), P0DTC2
Settings: remark: other sources report otherwise

B1: VHH72_S56A-Fc (P. pastoris) (Fc fusion)
chain: QVQLQESGGGLVQAGGSLRLSCAASGRTFSEYAMGWFRQAPGKEREFVATISWSGGATYYTDSVKGRFTISRDNAKNTVYLQMNSLKPDDTAVYYCAAAGLGTVVSEWDYDYDYWGQGTQVTVSS
% Signal decrease over 8 min dissociation: 6% and 7%
Kd: 0.0496 nM and 0.0541 nM
koff: 0.000123 s⁻¹ and 0.000146 s⁻¹
kon: 2.48e+06 M⁻¹ s⁻¹ and 2.69e+06 M⁻¹ s⁻¹
